Source: patent US20100136573A1, “DIAGNOSING NEURODEGENERATIVE DISEASES” (priority 2007, published 2010)
Substitutions are numbered along the chain they refer to. In names and notes the source's numbering stands.

B1: GFP-TDP-25: GFP-tagged 25 kDa (aa 220-414) C-terminal TDP-43 fragment (protein)
chain: VFIPKPFRAFAFVTFADDQIAQSLCGEDLIIKGISVHISNAEPKHNSNRQLERSGRFGGNPGGFGNQGGFGNSRGGGAGLGNNQGSNMGGGMNFGAFSINPAMMAAAQAALQSSWGMMGMLASQQNQSGPSGNNQNQGNMQREPNQAFGSGNNSYSGSNSGAAIGWGSASNAGSGSGFNGGFGSSMDSKSSGWGM
modifications: left off: large carriers
notes: GFP-tagged 25 kDa (aa 220-414) C-terminal TDP-43 fragment
B2: GFP-TDP-35: GFP-tagged 35 kDa (aa 90-414) C-terminal TDP-43 fragment (protein, UniProt Q13148 90-414, looked up, fragment)
chain: ASSAVKVKRAVQKTSDLIVLGLPWKTTEQDLKEYFSTFGEVLMVQVKKDLKTGHSKGFGFVRFTEYETQVKVMSQRHMIDGRWCDCKLPNSKQSQDEPLRSRKVFVGRCTEDMTEDELREFFSQYGDVMDVFIPKPFRAFAFVTFADDQIAQSLCGEDLIIKGISVHISNAEPKHNSNRQLERSGRFGGNPGGFGNQGGFGNSRGGGAGLGNNQGSNMGGGMNFGAFSINPAMMAAAQAALQSSWGMMGMLASQQNQSGPSGNNQNQGNMQREPNQAFGSGNNSYSGSNSGAAIGWGSASNAGSGSGFNGGFGSSMDSKSSGWGM
modifications: GFP tag
notes: GFP-tagged 35 kDa (aa 90-414) C-terminal TDP-43 fragment
B3: GFP-TDP-ΔNR1: GFP-tagged C-terminal fragment (aa 193-414) lacking the N-terminus and the RRMI (protein, UniProt Q13148 193-414, looked up, fragment)
chain: VFVGRCTEDMTEDELREFFSQYGDVMDVFIPKPFRAFAFVTFADDQIAQSLCGEDLIIKGISVHISNAEPKHNSNRQLERSGRFGGNPGGFGNQGGFGNSRGGGAGLGNNQGSNMGGGMNFGAFSINPAMMAAAQAALQSSWGMMGMLASQQNQSGPSGNNQNQGNMQREPNQAFGSGNNSYSGSNSGAAIGWGSASNAGSGSGFNGGFGSSMDSKSSGWGM
modifications: GFP tag
notes: GFP-tagged C-terminal fragment (aa 193-414) lacking the N-terminus and the RRMI
B4: GFP-TDP-25S409A/S410A: mutant GFP-TDP-25 incapable of being phosphorylated at S409/S410 (protein)
chain: B1 chain with S190A, S191A
modifications: left off: large carriers
notes: mutant GFP-TDP-25 incapable of being phosphorylated at S409/S410
B5: caspase-3: active human recombinant caspase-3 (CHEMICON) (protein)
chain: SGISLDNSYKMDYPEMGLCIIINNKNFHKSTGMTSRSGTDVDAANLRETFRNLKYEVRNKNDLTREEIVELMRDVSKEDHSKRSSFVCVLLSHGEEGIIFGTNGPVDLKKITNFFRGDRCRSLTGKPKLFIIQACRGTELDCGIETDSGVDDDMACHKIPVEADFLYAYSTAPGYYSWRNSKDGSWFIQSLCAMLKQYADKLEFMHILTRVNRKVATEFESFSFDATFHAKKQIPCIVSMLTKELYFYH

Assays:
[1] = system: TDP-43 exon 9 skipping activity; experiment: CFTR mini-gene splicing assay; assay type: cell-based
Procedure: The CFTR mini-gene splicing assay was conducted as described elsewhere (Pagani et al., J. Biol. Chem., 275(28):21041-21047 (2000) and Ayala et al., FEBS Lett., 580(5):1339-1344 (2006)). In brief, Hela cells were co-transfected with 1 μg of minigene construct and 1 μg of GFP-fusion protein expression vector. […] Then, 2 μg of total RNA was used to synthesize cDNA using the SuperScript III First-Strand Synthesis System (Invitrogen). For the PCR, 2 μL of cDNA was used in a 20 μL of reaction according to the manufacturer's protocol for Taq PCR Core Kit (Qiagen). The amplification conditions consisted of an initial denaturation step at 94° C. for 3 minutes, followed by 30 cycles of 94° C. for 30 seconds, 62° C. for 60 seconds, and 72° C. for 90 seconds.

[2] = biological target: T1, Flag-TDP-43 (Homo sapiens, UniProt Q13148); experiment: Co-immunoprecipitation with Flag-TDP-43; assay type: binding; details: HeLa cells, probing for GFP
T1 construct: the exon skipping activity in cells overexpressing full-length TDP-43 was examined; expressed in transfected cells; host or cells: HeLa cells
Procedure: (§1) For co-immunoprecipitation studies, HeLa cells were transfected with 1 or 2 μg of each plasmid. Cells were harvested 48 hours later using Co-IP buffer (50 mM Tris-HCl, pH 7.4, 1 M NaCl, 1% Triton X-100, 5 mM EDTA) containing PMSF as well as protease and phosphatase inhibitors. The lysates were sonicated and centrifuged at 16,000 g for 20 minutes. The protein concentration of supernatants was determined by BCA assay (Thermo Scientific). Supernatant containing 500 μg of total protein was combined with Anti-Flag M2 agarose (Sigma) and incubated overnight at 4° C. with gentle shaking. The agarose was pelleted by centrifugation at 2,500 g for 5 minutes and washed with Co-IP buffer 6 times. Captured protein was eluted from the beads using loading buffer and resolved by SDS-PAGE for Western blot analysis.

[3] = system: differentiated M17 neuroblastoma cells; experiment: Toxicity assay (LDH release, activated caspase-3 staining); assay type: cell-based
Procedure: M17 neuroblastoma cells, seeded at 2.5×10^3 cells per well in 24-well plates, were grown in Neurobasal A/B27 medium containing Glutamax (Invitrogen) and 10 μM retinoic acid (Sigma) to induce differentiation. Seven days later, cells were transfected with 0.2 μg of expression vector for 72 hours. The medium was collected, and a LDH assay (Promega) was used to measure LDH levels as an indicator of toxicity. Then, cells were fixed, and immunofluorescent staining was done using an antibody against activated caspase-3 (1:250; Cell signaling) and the nuclear marker, bisbenzimide (Hoechst 33258).
(§2) The cultured HEK293 and differentiated M17 cells were fixed with 4% paraformaldehyde in phosphate-buffered saline (PBS) at 4° C. for 15 minutes and permeabilized with PBS-0.5% Triton X-100 for 10 minutes. After blocking with 5% BSA for 1 hour at 37° C., the cells were incubated overnight at 4° C. with mouse monoclonal HA antibody (1:1000, Roche Applied Science), rabbit polyclonal activated caspase-3 antibody (1:250, Cell Signaling), rabbit polyclonal anti-pTDP-43 (which detects phosphorylated S409/S410; 1:1000, COSMO BIO CO., LTD), mouse monoclonal Flag antibody (1:1000, Sigma), rabbit polyclonal M2085 (1:1000), or rabbit polyclonal M2079 (1:1000). After washing, cells were incubated with the Alexa 568-conjugated goat anti-mouse IgG secondary antibody (1:1000, Molecular Probes) or anti-rabbit IgG secondary antibody (1:500, Molecular Probes) at 37° C. for 2 hours. Finally, Hoechst 33258 (1 μg/mL, Invitrogen) was used to stain the nuclei. Images were obtained on a Zeiss LSM 510 META confocal microscope.

[4] = system: HEK293 cells; experiment: Inclusion formation and distribution of GFP-TDP-43 constructs, confocal microscopy; assay type: cell-based; details: for cells with compact cytoplasmic inclusions: HEK293, 48 hours after transfection; for cellular distribution / inclusion formation: HEK293, confocal fluorescence microscopy
Procedure: HEK293 cells, grown on glass coverslips, were transfected with 0.3 μg of expression vector (GFP, GFP-TDP-43, GFP-TDP-43-caspase-resistant, GFP-TDP-35, GFP-TDP-25, or GFP-TDP-ΔNR1) by using Lipofectamine 2000 (Invitrogen) according to the manufacturer's instructions then subjected to immunofluorescence analysis 48 hours later. To determine if the cytoplasmic inclusion were insoluble, some cells were treated with 0.2% Triton X-100 prior to fixation, in order to remove soluble protein. To determine if the formation of inclusion was aggresome-dependent, some cells were treated with 1 μM nocodazole (Sigma) for 24 hours after 6 hours of transfection. Finally, to examine if inclusions were ubiquitinated, cells were cotransfected with 0.3 μg of a TDP-43 construct and 0.5 μg HA-ubiquitin, then subjected to immunofluorescence analysis 72 hours later.
as §2

[5] = biological target: T2, hnRNPA2 (Homo sapiens, UniProt P22626); experiment: Co-immunoprecipitation with Flag-tagged hnRNPA2; assay type: binding; details: HeLa cells, probing for GFP
T2 construct: expressed in transfected cells; host or cells: HeLa cells
Procedure: as §1

[6] = biological target: T3, Recombinant human GST-TDP43 (Homo sapiens, UniProt Q13148); experiment: In vitro caspase-3 assay; assay type: biochemical; details: 2 units, 2 and 4 hours, Coomassie staining
T3 construct: Full-length or caspase-3-treated recombinant GST-TDP43 (0.5 μg) was separated by 10% SDS-PAGE
Procedure: Recombinant human GST-TDP43 (2 μg) was incubated with active human recombinant caspase-3 (2 units, CHEMICON International, Inc., Temecula, Calif.) in reaction buffer containing 100 mM NaCl, 50 mM HEPES, 10 mM DTT, 1 mM EDTA, 10% glycerol, 0.1% CHAPS, pH 7.4) at 37° C. for 2 hours or 4 hours, respectively. Cleavage reactions were terminated by addition of 2×SDS loading buffer. Full-length or caspase-3-treated recombinant GST-TDP43 (0.5 μg) was separated by 10% SDS-PAGE and stained with Coomassie blue.

[7] = medium collected 72 hours after transfection

T2 sequence (P22626 1-341 isoform P22626-2, species assumed): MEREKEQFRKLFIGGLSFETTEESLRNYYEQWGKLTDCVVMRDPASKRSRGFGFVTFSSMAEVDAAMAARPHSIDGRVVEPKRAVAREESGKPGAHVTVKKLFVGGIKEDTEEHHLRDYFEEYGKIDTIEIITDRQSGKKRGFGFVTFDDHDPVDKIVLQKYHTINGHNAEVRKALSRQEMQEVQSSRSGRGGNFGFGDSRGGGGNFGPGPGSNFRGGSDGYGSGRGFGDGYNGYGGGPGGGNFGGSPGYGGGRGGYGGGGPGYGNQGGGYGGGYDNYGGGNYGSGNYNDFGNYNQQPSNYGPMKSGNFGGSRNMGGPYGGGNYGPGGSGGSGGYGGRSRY
T3 sequence (Q13148 whole entry): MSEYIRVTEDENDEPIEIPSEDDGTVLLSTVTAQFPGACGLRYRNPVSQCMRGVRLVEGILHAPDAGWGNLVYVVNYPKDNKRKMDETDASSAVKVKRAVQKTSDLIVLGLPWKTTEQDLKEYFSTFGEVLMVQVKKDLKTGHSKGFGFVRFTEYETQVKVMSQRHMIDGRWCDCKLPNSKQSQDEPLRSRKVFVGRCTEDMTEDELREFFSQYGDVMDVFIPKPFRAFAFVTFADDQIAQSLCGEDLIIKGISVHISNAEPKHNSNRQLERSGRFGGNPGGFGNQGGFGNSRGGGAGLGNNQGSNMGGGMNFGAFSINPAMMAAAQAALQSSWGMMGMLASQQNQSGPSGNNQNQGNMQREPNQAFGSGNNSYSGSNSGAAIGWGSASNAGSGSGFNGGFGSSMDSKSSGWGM
T1 sequence (Q13148 whole entry): as above

Molecule	LDH release compared to cells transfected with full-length or caspase-resistant TDP-43 [3, 7]	cells with compact cytoplasmic inclusions [4]	cellular distribution [4]	inclusion formation [4]	further results
B1	significantly higher	~75 % of cells	cytoplasmic and nuclear distribution		CFTR exon 9 exclusion (endogenous TDP-43 background) ([1]; HeLa cells cotransfected with CFTR minigene, RT-PCR, compared to GFP): did not differ; exon skipping activity in cells overexpressing Flag-TDP-43 ([1]; cotransfected with CFTR mini-gene and Flag-TDP-43): did not reduce; binding to Flag-TDP-43 [2]: only weakly interacted; inclusion-positive cells positive for fragmented nuclei and activated caspase-3 ([3]; quantitative analysis, Hoechst and activated caspase-3 staining): ~50%; nuclear localization of Flag-TDP-43 ([4]; HEK293 co-transfected with Flag-TDP-43): not appreciably altered; binding to hnRNPA2 [5]: interact with hnRNPA2
B2		~25 % of cells	cytoplasmic and nuclear distribution		
B3			diffuse cytoplasmic and nuclear immunoreactivity	no detectable inclusions	LDH levels compared to cells expressing only GFP [3, 7]: no different
B4	significantly higher			formed cytoplasmic inclusions	
B5					cleavage of recombinant GST-tagged TDP-43 [6]: three distinct fragments of approximately 42, 35, and 25 kD
